Assay results reported in publication PMC10151520, “TapA acts as specific chaperone in TasA filament formation by strand complementation” (Proceedings of the National Academy of Sciences of the …, 2023).

Experiments:
[1] = biological target: T1, TasA (mature protein, residues 28 to 261) (Bacillus subtilis (strain 168), UniProt P54507); assay: AUC (sedimentation velocity); 150 mM NaCl at pH 7 (no ITC response at 50 mM NaCl, pH 7); TapA-induced TasA oligomerization
T1 chain: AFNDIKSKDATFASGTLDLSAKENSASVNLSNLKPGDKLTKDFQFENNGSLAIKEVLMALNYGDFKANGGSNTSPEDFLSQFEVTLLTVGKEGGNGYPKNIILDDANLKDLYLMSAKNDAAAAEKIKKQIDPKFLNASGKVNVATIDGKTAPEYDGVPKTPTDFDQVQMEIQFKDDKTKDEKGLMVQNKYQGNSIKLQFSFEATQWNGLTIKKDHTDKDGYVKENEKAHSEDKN

[2] = biological target: the molecule itself; assay: SEC; gel filtration of TapA constructs, without DTT
[3] = biological target: the molecule itself; assay: time course of 1H solution NMR signals of the monomer; one-dimensional 1H spectra over time after mixing; TasA at 125 or 250 µM with TapA or TapA variants (e.g. 5:1); legend: 20 °C, pH 7, 150 mM NaCl
[4] = biological target: T2, TasA (mature protein, residues 28 to 261) (Bacillus subtilis, UniProt P54507 28-261); assay: AUC; sedimentation velocity of mixtures: 100 µM TasA with TapA (100, 70, 10, 4, 2 or 1 µM), TapA variants (100 µM) or 250 µM peptide; 20 °C, 20 mM Na phosphate pH 7.0, 150 mM NaCl, 40,000 rpm, runs of 17 h; conditions: both partners purified
T2 construct: Used unlabelled or isotope-labelled (2H,13C,15N; 2H,15N; [2-13C]-glycerol) according to the experiment; also called translocation-dependent antimicrobial spore component; source: monomer separated by gel filtration
T2 sequence (looked up): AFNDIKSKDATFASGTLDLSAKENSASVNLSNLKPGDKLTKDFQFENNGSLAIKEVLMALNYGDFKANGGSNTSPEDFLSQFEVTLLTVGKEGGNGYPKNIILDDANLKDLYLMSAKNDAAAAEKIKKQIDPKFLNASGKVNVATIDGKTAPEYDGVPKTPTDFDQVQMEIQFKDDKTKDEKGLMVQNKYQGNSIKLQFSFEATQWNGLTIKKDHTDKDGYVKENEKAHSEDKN

B1: TapA (mature protein, residues 44 to 253) (protein)
chain: AFHDIETFDVSLQTCKDFQHTDKNCHYDKRWDQSDLHISDQTDTKGTVCSPFALFAVLENTGEKLKKSKWKWELHKLENARKPLKDGNVIEKGFVSNQIGDSLYKIETKKKMKPGIYAFKVYKPAGYPANGSTFEWSEPMRLAKCDEKPTVPKKETKSDVKKENETTQKDIPEKTMKEETSQEAVTKEKETQSDQKESGEEDEKSNEADQ
[1]
  binding result: binds

B2: TapA_(60-190) (domain or fragment, B. subtilis 168, UniProt P40949 60-190, looked up)
chain: DFQHTDKNCHYDKRWDQSDLHISDQTDTKGTVCSPFALFAVLENTGEKLKKSKWKWELHKLENARKPLKDGNVIEKGFVSNQIGDSLYKIETKKKMKPGIYAFKVYKPAGYPANGSTFEWSEPMRLAKCDE
notes: TapA of Bacillus subtilis 168, residues 60 to 190; Odd number of cysteines (free C68)
[2]
  stoichiometry N: 2

B3: TapA_(66-190) (domain or fragment, B. subtilis 168, UniProt P40949 66-190, looked up)
chain: KNCHYDKRWDQSDLHISDQTDTKGTVCSPFALFAVLENTGEKLKKSKWKWELHKLENARKPLKDGNVIEKGFVSNQIGDSLYKIETKKKMKPGIYAFKVYKPAGYPANGSTFEWSEPMRLAKCDE
notes: TapA of Bacillus subtilis 168, residues 66 to 190; Odd number of cysteines (free C68)
[2]
  stoichiometry N: 2

B4: TasA_(28-239) (domain or fragment, Bacillus subtilis, UniProt P54507 28-239, looked up)
chain: AFNDIKSKDATFASGTLDLSAKENSASVNLSNLKPGDKLTKDFQFENNGSLAIKEVLMALNYGDFKANGGSNTSPEDFLSQFEVTLLTVGKEGGNGYPKNIILDDANLKDLYLMSAKNDAAAAEKIKKQIDPKFLNASGKVNVATIDGKTAPEYDGVPKTPTDFDQVQMEIQFKDDKTKDEKGLMVQNKYQGNSIKLQFSFEATQWNGLTIK
[3]
  binding result: binds

B5: TapA_(44-190) (domain or fragment, B. subtilis 168, UniProt P40949 44-190, looked up)
chain: AFHDIETFDVSLQTCKDFQHTDKNCHYDKRWDQSDLHISDQTDTKGTVCSPFALFAVLENTGEKLKKSKWKWELHKLENARKPLKDGNVIEKGFVSNQIGDSLYKIETKKKMKPGIYAFKVYKPAGYPANGSTFEWSEPMRLAKCDE
notes: also called TapA without residues beyond E190; variant with deleted C terminus
[4]
  binding result: binds
